“Also recorded” adds a separate entry of the source.
T1: rEfb-N binding to Fg (Homo sapiens, UniProt P02671+P02675+P02679)
T1 construct: full-length human Fibrinogen (diluted in PBS, Enzyme research); purchased Enzyme research; host or cells: Efb probe made in E. coli
T1 sequence (P02671 20-629 limits assumed): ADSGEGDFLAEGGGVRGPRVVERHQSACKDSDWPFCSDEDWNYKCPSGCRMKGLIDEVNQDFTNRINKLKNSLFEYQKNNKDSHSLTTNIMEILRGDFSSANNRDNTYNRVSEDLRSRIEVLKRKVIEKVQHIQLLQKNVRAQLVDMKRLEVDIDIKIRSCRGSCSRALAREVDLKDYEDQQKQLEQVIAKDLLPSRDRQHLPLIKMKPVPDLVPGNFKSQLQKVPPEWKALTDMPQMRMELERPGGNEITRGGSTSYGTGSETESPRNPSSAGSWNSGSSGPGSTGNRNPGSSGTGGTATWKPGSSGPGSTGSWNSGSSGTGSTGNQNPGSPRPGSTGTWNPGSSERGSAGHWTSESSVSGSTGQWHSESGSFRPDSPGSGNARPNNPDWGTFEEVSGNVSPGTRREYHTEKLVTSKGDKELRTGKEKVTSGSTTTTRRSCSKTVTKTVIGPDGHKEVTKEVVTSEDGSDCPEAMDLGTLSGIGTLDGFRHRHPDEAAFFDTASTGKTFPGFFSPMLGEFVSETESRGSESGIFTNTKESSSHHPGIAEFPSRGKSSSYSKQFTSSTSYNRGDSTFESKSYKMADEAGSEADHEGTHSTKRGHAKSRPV
T1 sequence (P02675 31-491): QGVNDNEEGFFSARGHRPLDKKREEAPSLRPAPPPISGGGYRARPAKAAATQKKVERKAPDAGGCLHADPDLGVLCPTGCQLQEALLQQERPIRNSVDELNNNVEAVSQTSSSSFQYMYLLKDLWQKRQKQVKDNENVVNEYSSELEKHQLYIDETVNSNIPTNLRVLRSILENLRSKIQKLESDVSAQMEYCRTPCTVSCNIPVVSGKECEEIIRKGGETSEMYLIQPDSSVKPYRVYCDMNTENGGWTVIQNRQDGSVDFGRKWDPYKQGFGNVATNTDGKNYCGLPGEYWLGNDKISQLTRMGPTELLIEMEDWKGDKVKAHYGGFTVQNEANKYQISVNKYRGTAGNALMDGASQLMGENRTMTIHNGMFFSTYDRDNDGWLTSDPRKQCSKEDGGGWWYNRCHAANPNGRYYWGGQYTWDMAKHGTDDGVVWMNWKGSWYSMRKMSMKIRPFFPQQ
T1 sequence (P02679 27-453): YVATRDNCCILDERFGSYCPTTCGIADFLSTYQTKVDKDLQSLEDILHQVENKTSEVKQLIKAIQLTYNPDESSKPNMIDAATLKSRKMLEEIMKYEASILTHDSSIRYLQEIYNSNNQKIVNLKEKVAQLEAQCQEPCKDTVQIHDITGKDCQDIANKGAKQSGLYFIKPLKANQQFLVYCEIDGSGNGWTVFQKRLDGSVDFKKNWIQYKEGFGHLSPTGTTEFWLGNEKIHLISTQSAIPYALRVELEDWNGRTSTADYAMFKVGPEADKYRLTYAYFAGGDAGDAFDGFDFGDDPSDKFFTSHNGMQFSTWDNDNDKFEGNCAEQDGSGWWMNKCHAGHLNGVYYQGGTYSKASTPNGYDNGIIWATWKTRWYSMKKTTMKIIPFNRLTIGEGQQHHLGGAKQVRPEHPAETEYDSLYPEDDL

B1: FBE5-A12: VH SEQ ID NO: 73, VL SEQ ID NO: 103 (antibody, V domains shown)
VH: QVQLVESGGGVVQPGRSLRLSCAASGFTFSSYGMHWVRQAPGKGLEWVAVISYDGSNKYYADSVKGRFTISRDNSKNTLYLQMNSLRGEDTAVYYCAREGGWEPNGLDYWGQGTLVTVSS
VL: QAVLTQPPSASGTPGQRVTISCSGSDFNVGTNYVNWYQQLPGSAPKLLIYRNNQRPSGVPDRFSGSKSGTSATLGITGLQTGDEADYYCGTWDSSLSAEVFGGGTKLTVL
B2: FBE5-F9: VH SEQ ID NO: 80, VL SEQ ID NO: 110 (antibody, V domains shown)
VH: QMQLVQSGGGVVQPGRSLRLSCAASGFTFSSYGMHWVRQAPGKGLEWVAVISYDGSNKYYADSVKGRFTISRDNSKNTLYLQMNSLRAEDTAVYYCAKEGDGDYGGVLDYWGQGTLVTVSS
VL: QSVLTQPPSVSAAPGQKVTISCSGSSSNIEKNYVSWYQQLPGTAPKLLIYDNNKRPSGIPDRFSGSKSGTSATLGITGLQTGDEADYYCGTWDSSLSAVVFGGGTKLTVL

Tests used:
[1] = biological target: T1, rEfb-N binding to Fg; experiment: Competition ELISA, peptide inhibition of rEfb-N (Efb 30-104) binding to Fg; settings: increasing concentration of peptides; 2 nM GST fusion protein
Description: Coa-F contains an Efb like fibrinogen binding motif. FIG. 11A is an image of a ClustalW alignment of amino acid sequence from Efb-O (Efb 68-98) and Coa from Newman strain (col-Newman). Sequence similarity was identified at Coa 474-505. Bold letters denote conserved residues and underlined letters represent similar residues. FIGS. 11B and 11C show a comparison of amino acid sequence of Efb-O with Coa 474-505 (FIG. 11B) and Coa 506-532 (FIG. 11C). Large letters in Efb-O indicate the residues important for Fg binding. The red letters show the identical residues and the yellow letters indicate the similar residues. […] Increasing concentration of Coa peptides was incubated with 2 nM GST fusion proteins in Fg-coated microtiter wells. Closed square, sCoa-O; closed circle, sCoa-RI; closed triangle, sEfb-O.
A peptide was synthesized that corresponds to the Coa-O sequence (sCoa-O) and determined its Fg binding activity in a competition ELISA. Microtiter wells were coated with Fg and binding of the recombinant N-terminal segment of Efb (rEfb-N), that harbors the two Fg binding sites, was quantitated in the presence of increasing concentration of different synthetic peptides.
In the case of peptide inhibition assay, various concentration of Efb or Coa peptides were mixed with a fixed concentration of Coa-GST or Efb-GST fusion proteins (5-10 nM) in TBS and the bound GST fusion proteins were detected through incubation with HRP-conjugated rabbit anti-GST polyclonal antibodies (5000× dilution). All proteins were diluted in TBS containing 1% BSA and 0.05% TWEEN® 20 and the ELISA assays were carried out at room temperature.

[2] = system: THP-1 cells; experiment: THP-1 cell adherence to immobilized Fg; type: cell-based
Procedure: Cell adherence assay using cell lines—A monocytic cell line THP-1 cell stably expressing αMβ2 was maintained in RPMI1640 supplemented with 10% fetal bovine serum, […] L-glutamine, 100 units/ml penicillin and 100 μg/ml streptomycin. Prior to use, cells were harvested by centrifuge, washed and suspended in RPMI 1640/1% human serum albumin. For cell adherence assays, 48-well plates were coated with 200 μl of Fibrinogen (10 μg/ml) overnight at 4° C. followed by 1 hour at 37° C. before blocking with 1% Polyvinylpyrrolidone (PVP 3600 kDa) for 45 minutes at 37° C. Subsequently, the cells were seeded 2×10^5/well in the presence or absence of Coa or Efb recombinant proteins or peptides and incubated at 37° C. for 25 minutes. Non-adherent cells were removed by washing gently three times with PBS/1% BSA. Adherent cells were quantitated with CyQuant kit according to the manufacturer's manual.

[3] = system: Coa-F, Coa-R0, Efb-N, Efb-O, Efb-A binding to Fg; experiment: Inhibition by FBE5 scFv-Fc of Coa and Efb fragment binding to immobilized human Fg; parameters: species or system Staphylococcus aureus; settings: scFv-Fc 0.5, 5, 50 μg/ml; for inhibition of binding to Fg of all proteins tested: Coa-F, Coa-R0, Efb-N, Efb-O 10 nM, Efb-A 750 nM
Procedure: To assess the inhibitory activity of anti-Coa scFv-Fc antibodies, 0.5 μg/well of human Fg was immobilized at 4° C. overnight in 50 mM Carbonate Buffer, pH 9.6. Indicated amounts (50, 5, 0.5 μg/ml) of scFv-Fcs prepared in 2% BSA+1×TBS+0.05% TWEEN® 20 were pre-incubated for 1 hour with a constant concentration of Coa or Efb fragments also prepared in 2% BSA+1×TBS+0.05% TWEEN® 20 at room temperature, 250 rpm shaking. Specifically, Coa-F, Coa-R0, Efb-N and Efb-O were at a fixed concentration of 10 nM; whereas Efb-A was at 750 nM. Fg-binding activity of each protein alone was also checked (no mAb control—0 μg/ml). The Fg-coated plate was blocked with 2% BSA-TBST and washed with PBST. […] Residual bound Coa and Efb fragments were detected with HRP-conjugated (HorseRadish Peroxidase-conjugated) α-GST-tag antibody, except for Efb-N, where an HRP-conjugated α-HIS-tag was used (see FIG. 18). HRP-tagged antibodies were diluted in 2% BSA+1×TBS+0.05% TWEEN® 20 and used at 1:10000 dilution. […] HRP signal was developed using […]™ OPD tablets using manufacturer's guidelines. Binding of Coa and Efb fragments to Fg (no mAb control) was set to 100% and residual binding to Fg of Coa and Efb fragments in the presence of different concentrations of antibodies was calculated and represented.
To assess the inhibitory activity of anti-Coa scFv-Fc antibodies, 0.5 μg/well of human Fg was immobilized at 4° C. overnight in 50 mM Carbonate Buffer, pH 9.6. Indicated amounts (0, 0.5, 5, and 50 μg/ml) of scFv-Fcs were pre-incubated for 1 hour with a constant concentration of Coa or Efb fragments. Specifically, Coa-F, Coa-R0, Efb-N and Efb-O were at a fixed concentration of 10 nM; whereas Efb-A was at 750 nM. Fg-binding activity of each protein alone was also checked (no mAb control—0 μg/ml). The Fg-coated plate was blocked with 2% BSA-PBST and washed with PBST. The pre-incubated mixture of Coa/Efb and anti-Coa scFv-Fc was transferred on the Fg-coated plate. Residual bound Coa and Efb fragments were detected with HRP-conjugated (HorseRadish Peroxidase-conjugated) α-GST-tag antibody, except for Efb-N, where an HRP-conjugated α-HIS-tag was used. Binding of Coa and Efb fragments to Fg (no mAb control) was set to 100% and residual binding to Fg of Coa and Efb fragments in the presence of different concentrations of antibodies was calculated and represented.

Row | Molecule | inhibition of rEfb-N binding to Fg [1] | inhibition of THP-1 adherence to immobilized Fg ([2]; M1/70 20 μg/ml, rEfb 0.2 μM, rCoa 0.5 μM, peptides 0.5 μM each) | reversal of inhibition of THP-1 adherence elicited by rEfb or rCoa ([2]; peptide 50 μM preincubated with rEfb (0.2 μM) or rCoa (0.2 μM)) | inhibition of CoaF, CoaRO and EfbA binding to Fg [3] | inhibition of EfbN and EfbO binding to Fg [3] | inhibition of binding to Fg of all proteins tested [3]
1 | sCoa-O: synthetic peptide corresponding to Coa-O, residues Coa 474-505 (KYVKYRDAGTGIREYNDGTFGYEARPRFNKPS) | potent inhibitor; also recorded: effectively inhibited rEfb-N binding to Fg | did not inhibit THP-1 adherence | reverses the inhibitory activities | – | – | –
2 | B1 | – | – | – | clear inhibition | less efficient | dose dependent inhibition of all proteins tested
3 | B2 | – | – | – | clear inhibition | less efficient | dose dependent inhibition of all proteins tested
